According to PMC11697113, “The Hsc70 system maintains the synaptic SNARE protein SNAP-25 in an assembly-competent state and delays its aggregation [drawing 1]” (The Journal of Biological Chemistry, 2024):

B1: CSPαJ: J-domain (residues 1–100) of human CSPα (protein, UniProt Q9H3Z4 1-100, looked up, fragment)
chain: MADQRQRSLSTSGESLYHVLGLDKNATSDDIKKSYRKLALKYHPDKNPDNPEAADKFKEINNAHAILTDATKRNIYDKYGSLGLYVAEQFGEENVNTYFV
modifications: J-domain
notes: J-domain (residues 1–100) of human CSPα
B2: Apg2: nucleotide exchange factor, member of the Hsp110 family (protein, UniProt P34932 1-840, looked up)
Heat shock 70 kDa protein 4: MSVVGIDLGFQSCYVAVARAGGIETIANEYSDRCTPACISFGPKNRSIGAAAKSQVISNAKNTVQGFKRFHGRAFSDPFVEAEKSNLAYDIVQLPTGLTGIKVTYMEEERNFTTEQVTAMLLSKLKETAESVLKKPVVDCVVSVPCFYTDAERRSVMDATQIAGLNCLRLMNETTAVALAYGIYKQDLPALEEKPRNVVFVDMGHSAYQVSVCAFNRGKLKVLATAFDTTLGGRKFDEVLVNHFCEEFGKKYKLDIKSKIRALLRLSQECEKLKKLMSANASDLPLSIECFMNDVDVSGTMNRGKFLEMCNDLLARVEPPLRSVLEQTKLKKEDIYAVEIVGGATRIPAVKEKISKFFGKELSTTLNADEAVTRGCALQCAILSPAFKVREFSITDVVPYPISLRWNSPAEEGSSDCEVFSKNHAAPFSKVLTFYRKEPFTLEAYYSSPQDLPYPDPAIAQFSVQKVTPQSDGSSSKVKVKVRVNVHGIFSVSSASLVEVHKSEENEEPMETDQNAKEEEKMQVDQEEPHVEEQQQQTPAENKAESEEMETSQAGSKDKKMDQPPQAKKAKVKTSTVDLPIENQLLWQIDREMLNLYIENEGKMIMQDKLEKERNDAKNAVEEYVYEMRDKLSGEYEKFVSEDDRNSFTLKLEDTENWLYEDGEDQPKQVYVDKLAELKNLGQPIKIRFQESEERPKLFEELGKQIQQYMKIISSFKNKEDQYDHLDAADMTKVEKSTNEAMEWMNNKLNLQNKQSLTMDPVVKSKEIEAKIKELTSTCSPIISKPKPKVEPPKEEQKNAEQNGPVDGQGDNPGPQAAEQGTDTAVPSDSDKKLPEMDID

Experiments:
[1] = SNAP-25 aggregation kinetics by optical density; type: biochemical; conditions: without SNAP-25, 37 °C
Procedure: (§1) To test our hypothesis that Hsc70 inhibits SNAP-25 aggregation, we monitored the aggregation kinetics of recombinantly expressed SNAP-25 in the absence and presence of Hsc70 by following optical density at 360 nm (Fig. 2). […] This lag time was elongated to ∼65 h in the presence of Hsc70. In neurons, Hsc70 works in collaboration with its co-chaperone CSPα. […] (Fig. S2A). Apg2 is a member of the Hsp110 family, which is known to suppress protein aggregation ([36]). […] (Fig. S2B).
(§2) Figure 2 Hsc70 delays the aggregation of SNAP-25. Aggregation kinetics of SNAP-25 (50 μM) at 37 °C. Optical density of SNAP-25 was recorded at 360 nm in the absence (black) and in the presence of Hsc70 (5 μM, red), and Hsc70+CSPαJ (5 μM each, blue).
(§3) Aggregation of SNAP-25 at 50 μM was followed by measuring the A360 in a 96-well plate using a BioTek plate reader (BioTek), at 37 °C with shaking at 300 rpm, in the absence and presence of Hsc70 and CSPαJ at 5 μM each, and Apg2 at 0.5 μM. The aggregation buffer included 20 mM phosphate buffer pH 7.4, 100 μM MgCl2, and 100 mM KCl, and an ATP-experiment was carried out using regeneration system (5 mM 2-phosphoenolpyruvate, 0.05 mg/ml pyruvate kinase, and 5 mM ATP), as described previously ([51]).
(§4) Figure SI 2. Apg2 enhances the effect of Hsc70 on SNAP-25. (A) Aggregation kinetics of SNAP-25 (50 μM) at 37 °C. OD600 of SNAP-25 was recorded in the absence (black) and in the presence of Hsc70, Hsc70+CSPa-J (blue) and Hsc70+CSPa-J+Apg2 (turquoise). […]
(§5) concentrations are SNAP-25 (50 μM), Hsc70 (5 μM), CSPa-J (5 μM) and Apg2 (0.5 μM).
(§6) (B) Aggregation kinetics of SNAP-25 (50 μM) at 37 °C. OD600 of SNAP-25 was recorded in the absence (black) and in the presence of Apg2 (blue). […]

SNAP-25 = SNAP-25 aggregation kinetics by optical density; type: biochemical; conditions: SNAP-25 50 μM
Procedure: as §1, §2, §3, §4, §5, §6

Hsc70 [2] = target: T1, Hsc70 (Homo sapiens, UniProt P11142); assay: SNAP-25 cellulose-bound peptide array probed with Hsc70; type: binding; conditions: Hsc70 with CSPαJ vs Hsc70 alone
T1 construct: 6X His-tag (TEV-cleavable) (cleaved yes); made in house; host or cells: E. coli Rosetta (DE3)
Source text: To explore in greater depth the binding sites for Hsc70 in SNAP-25, we screened a cellulose-bound peptide array spanning the full SNAP-25 sequence with 13-residue long peptides, overlapping by ten residues, and probed with Hsc70 in the presence of a two-fold excess of ATP and ten-fold excess of ADP. The binding of Hsc70 to sites in the array was then visualized with an anti-Hsc70 primary antibody and a horse radish peroxidase-tagged secondary antibody to enable visualization by chemiluminescence (Fig. 4A). To quantitatively analyze the array, we used ImageJ (https://imagej.net/ij/) and plotted the intensity under the area for each spot. […] One site is located in the SNN, one in the LOOP, and one in the LOOP-SNC region (called SNC site) (Fig. 4A) […] (Fig. 1C). […] The binding site in the LOOP region is very close to the cysteine residues that become palmitoylated as SNAP-25 moves to its membrane-localized state. It is formally possible that Hsc70 binds to SNAP-25 in the initial un-palmitoylated state and dissociates upon palmitoylation and association with the plasma membrane. […]
B, quantification of the spots from Figure 4A using ImageJ (Hsc70 (gray) and Hsc70-CSPαJ (dark gray)). […]
A peptide array of SNAP-25 was obtained from CEM corporation. […] The chemiluminescence was captured in a G-box (Syngene), and the images were analyzed using ImageJ.

Hsc70 [3] = target: T1, Hsc70; assay: ATPase activity of Hsc70 (malachite green); type: biochemical; conditions: for ATPase activity of co-chaperone alone: baseline, protein alone without Hsc70
Source text: Hsp70s consist of an nucleotide-binding domain (NBD) and a substrate-binding domain (SBD). Hsc70 works using an allosteric mechanism whereby substrate binding at the SBD stimulates the ATP hydrolysis rate at the nucleotide-binding domain. The basal ATPase rate of Hsp70 is low, usually about 0.05 ± 0.009 mol Pi/mol protein, and increases when it is stimulated by binding of a peptide to the canonical site in the SBD. We measured the ability of SNAP-25 peptides SNNP and SNCP to stimulate the ATPase rate of Hsc70 (Fig. 5A). SNNP and SNCP binding cause a 1.5-fold increase of the Hsc70 ATPase rate over basal (observed rates upon addition of SNNP and SNCP were 0.089 ± 0.008 and 0.080 ± 0.005, respectively). In order to confirm that peptides are indeed binding at the canonical binding site of Hsc70, we used the V438F mutant that blocks the binding site ([37]). […] The addition of CSPαJ stimulates the ATPase activity of Hsc70 ∼4-fold with and without peptides.
Figure 5 SNN and SNC peptides interact with the canonical substrate-binding site of Hsc70.A, ATPase activity of Hsc70 (2 μM) in the absence (gray) and presence of 200 μM SNNP (orange) and SNCP (green) peptides. Error bars represent the SDs from three independent experiments. B, binding of SNAP-25 (black), SNNP (orange), LoopP (blue), and SNCP (green) peptides to Hsc70 followed by competition for FITC-p5 peptide using fluorescence anisotropy. Increasing concentrations of the competitors were added to a complex of Hsc70 (5 μM) and FITC-p5 peptide (50 nM). Error bars represent SDs from three independent experiments. C, structure of the canonical substrate-binding site of human HspA1 (PDB 4po2) illustrating the location of Hsc70 residues Ile 403 and Ile 440 in red and green spheres, respectively (N.B., Hsc70 and HspA1 share […] sequence identity). The SBD is shown in gray, bound substrate in cyan sticks, and the side chain of the residue occupying the 0th position in the chaperone (“anchor residue”) in orange ball and sticks. For better visualization of the substrate-binding site, residues 512 to 613, 405 to 408, and 431 were removed in this illustration of the structure. […]
We performed ATPase assays to observe the activity of Hsc70 in the presence of SNAP25 peptides. […] Absorbance readings were taken at 620 nm using a BioTek plate reader. […]
(C) ATPase activity of Hsc70 (at 2 μM) in the absence (grey) and presence of 200 μM SNNP (orange) and L(Loop)-SNCP (green) peptides, and in the absence and presence of CSPa-J and CSPa-J/Apg2. The statistical significance was calculated using one-way ANOVA test with Sidak’s multiple comparison and the Hsc70 ATPase activity […]

[4] = OD600 (Fig. S2A), Hsc70 5 μM, CSPa-J 5 μM, Apg2 0.5 μM

T1 sequence (P11142 whole entry): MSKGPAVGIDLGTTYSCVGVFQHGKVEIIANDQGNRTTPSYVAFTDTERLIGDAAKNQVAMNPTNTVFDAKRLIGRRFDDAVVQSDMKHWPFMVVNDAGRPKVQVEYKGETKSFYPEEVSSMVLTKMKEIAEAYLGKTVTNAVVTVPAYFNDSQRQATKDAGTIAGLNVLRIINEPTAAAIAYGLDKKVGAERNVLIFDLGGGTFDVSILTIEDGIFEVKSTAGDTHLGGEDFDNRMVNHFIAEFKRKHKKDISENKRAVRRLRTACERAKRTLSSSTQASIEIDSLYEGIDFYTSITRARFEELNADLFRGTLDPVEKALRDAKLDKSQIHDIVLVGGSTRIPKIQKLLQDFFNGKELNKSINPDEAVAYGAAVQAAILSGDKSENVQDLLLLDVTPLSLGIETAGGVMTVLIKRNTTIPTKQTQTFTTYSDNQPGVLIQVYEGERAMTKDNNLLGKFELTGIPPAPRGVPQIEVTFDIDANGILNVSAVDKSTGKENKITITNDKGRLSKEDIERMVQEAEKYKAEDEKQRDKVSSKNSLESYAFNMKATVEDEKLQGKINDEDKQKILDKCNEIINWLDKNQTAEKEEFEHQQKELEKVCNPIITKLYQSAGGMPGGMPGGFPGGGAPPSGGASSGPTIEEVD

Molecule | aggregation of the chaperone alone ([1]; OD 360 nm (Fig. 2)) | aggregation of the chaperone alone [1, 4] | effect of CSPαJ on lag time of SNAP-25 aggregation with Hsc70 (SNAP-25; Hsc70 and CSPαJ 5 μM each, 37 °C, OD 360 nm) | effect of CSPαJ on specificity of Hsc70 binding to SNAP-25 array (Hsc70 [2]) | stimulation of Hsc70 ATPase activity by CSPαJ (Hsc70 [3]; Hsc70 2 μM, with and without peptides) | ATPase activity of co-chaperone alone (Hsc70 [3]) | effect of Apg2 alone on SNAP-25 aggregation (SNAP-25; Apg2 without Hsc70/CSPαJ, 37 °C (Fig. S2B)) | effect of Apg2 on SNAP-25 aggregation kinetics with Hsc70-CSPαJ (SNAP-25; Hsc70 5 μM, CSPαJ 5 μM, Apg2 0.5 μM, 37 °C (Fig. S2A)) | effect of Apg2 on Hsc70 ATPase activity (Hsc70 [3]; Hsc70 2 μM with CSPαJ, with Apg2 (Fig. S2C))
B1 | no aggregation | exhibit no aggregation | elongates the lag time of SNAP-25 aggregation | does not change the specificity of Hsc70 binding to SNAP-25 | ~4 fold | no ATPase activity | – | – | –
B2 | – | exhibit no aggregation | – | – | – | no ATPase activity | no significant effect | further elongated | not further increased
